Reference: US20190248900A1 (Y BIOLOGICS, published 2019)

Assays:
Assay in all cases: ELISA
[1] = biological target: T1, DNER (Homo sapiens (Human), UniProt Q8NFT8 35-640)
T1 sequence: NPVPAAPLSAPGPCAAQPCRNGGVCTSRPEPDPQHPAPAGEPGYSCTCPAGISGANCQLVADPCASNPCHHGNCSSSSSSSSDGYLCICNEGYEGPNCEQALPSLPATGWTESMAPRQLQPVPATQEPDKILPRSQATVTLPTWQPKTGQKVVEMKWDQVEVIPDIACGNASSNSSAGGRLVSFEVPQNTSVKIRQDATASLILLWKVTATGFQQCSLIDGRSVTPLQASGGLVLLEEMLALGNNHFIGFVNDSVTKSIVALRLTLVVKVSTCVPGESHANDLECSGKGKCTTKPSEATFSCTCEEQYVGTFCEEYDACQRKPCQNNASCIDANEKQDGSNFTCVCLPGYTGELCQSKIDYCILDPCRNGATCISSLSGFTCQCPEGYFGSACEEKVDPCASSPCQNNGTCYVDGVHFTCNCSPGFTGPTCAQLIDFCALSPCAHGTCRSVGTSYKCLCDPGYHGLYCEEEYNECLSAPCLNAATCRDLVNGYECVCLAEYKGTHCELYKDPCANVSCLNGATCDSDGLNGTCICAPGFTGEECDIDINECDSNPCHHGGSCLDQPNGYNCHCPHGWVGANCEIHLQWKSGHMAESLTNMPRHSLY

[2] = biological target: T2, LRTM1 (Homo sapiens (Human), UniProt Q9HBL6 28-288)
T2 sequence: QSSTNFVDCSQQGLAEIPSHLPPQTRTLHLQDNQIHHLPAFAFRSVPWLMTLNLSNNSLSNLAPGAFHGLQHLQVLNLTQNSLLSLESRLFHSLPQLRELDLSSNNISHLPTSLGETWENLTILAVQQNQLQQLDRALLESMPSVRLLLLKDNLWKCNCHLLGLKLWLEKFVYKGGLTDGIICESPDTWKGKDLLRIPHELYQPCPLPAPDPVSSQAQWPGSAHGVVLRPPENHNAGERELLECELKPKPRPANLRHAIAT

[3] = biological target: APCDD1 (Homo sapiens (Human), UniProt Q8J025 27-492)
[4] = biological target: T3, RAET1E (Homo sapiens (Human), UniProt Q8TD07 31-225)
T3 sequence: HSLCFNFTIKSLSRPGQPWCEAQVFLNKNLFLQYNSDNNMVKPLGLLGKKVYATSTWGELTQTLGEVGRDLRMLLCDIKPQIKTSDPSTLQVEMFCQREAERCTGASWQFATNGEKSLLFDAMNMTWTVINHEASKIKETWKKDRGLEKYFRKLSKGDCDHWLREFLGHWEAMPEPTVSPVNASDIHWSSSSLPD

[5] = biological target: T4, TMEFF2 (Homo sapiens (Human), UniProt Q9UIK5 41-320)
T4 sequence: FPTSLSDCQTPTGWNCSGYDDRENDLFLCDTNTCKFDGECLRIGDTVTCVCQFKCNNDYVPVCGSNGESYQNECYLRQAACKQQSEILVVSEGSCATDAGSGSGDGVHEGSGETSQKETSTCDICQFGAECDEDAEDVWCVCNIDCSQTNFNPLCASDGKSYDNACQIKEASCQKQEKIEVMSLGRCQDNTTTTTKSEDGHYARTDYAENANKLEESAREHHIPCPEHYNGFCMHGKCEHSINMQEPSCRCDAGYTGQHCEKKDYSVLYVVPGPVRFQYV

[6] = biological target: T5, TMED1 (Homo sapiens (Human), UniProt Q13445 24-194)
T5 sequence: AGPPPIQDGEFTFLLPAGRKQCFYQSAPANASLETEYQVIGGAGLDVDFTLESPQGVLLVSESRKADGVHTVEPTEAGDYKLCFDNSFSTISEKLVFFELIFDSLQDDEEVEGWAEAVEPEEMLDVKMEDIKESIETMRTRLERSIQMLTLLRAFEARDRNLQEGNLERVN

[7] = biological target: T6, SCARF1 (Homo sapiens (Human), UniProt Q14162 20-421)
T6 sequence: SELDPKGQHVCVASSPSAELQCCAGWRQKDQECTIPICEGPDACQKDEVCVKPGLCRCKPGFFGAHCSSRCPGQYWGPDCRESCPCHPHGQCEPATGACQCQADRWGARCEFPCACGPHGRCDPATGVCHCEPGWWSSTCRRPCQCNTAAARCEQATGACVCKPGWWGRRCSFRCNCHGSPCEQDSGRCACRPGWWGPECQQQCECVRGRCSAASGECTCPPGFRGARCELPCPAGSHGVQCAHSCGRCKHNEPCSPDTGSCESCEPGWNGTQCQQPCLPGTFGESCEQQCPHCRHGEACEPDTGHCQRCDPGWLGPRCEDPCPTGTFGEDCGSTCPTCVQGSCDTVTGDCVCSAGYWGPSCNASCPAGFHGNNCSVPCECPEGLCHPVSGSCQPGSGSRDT

[8] = biological target: SUSD1 (Homo sapiens (Human), UniProt Q6UWL2 30-721)
[9] = biological target: T7, BAMBI (Homo sapiens (Human), UniProt Q13145 21-152)
T7 sequence: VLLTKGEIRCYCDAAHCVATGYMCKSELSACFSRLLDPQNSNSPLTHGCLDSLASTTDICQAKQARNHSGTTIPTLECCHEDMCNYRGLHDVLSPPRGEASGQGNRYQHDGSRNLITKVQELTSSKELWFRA

[10] = biological target: T8, NBL1 (Homo sapiens (Human), UniProt P41271 17-181)
T8 sequence: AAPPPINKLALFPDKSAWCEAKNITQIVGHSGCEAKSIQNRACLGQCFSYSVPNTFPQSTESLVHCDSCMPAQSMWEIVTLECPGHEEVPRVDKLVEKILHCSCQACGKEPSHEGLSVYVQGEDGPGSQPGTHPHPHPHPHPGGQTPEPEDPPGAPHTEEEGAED

Measured: binding result

Sequence of SUSD1 (Q6UWL2 30-721 limits assumed): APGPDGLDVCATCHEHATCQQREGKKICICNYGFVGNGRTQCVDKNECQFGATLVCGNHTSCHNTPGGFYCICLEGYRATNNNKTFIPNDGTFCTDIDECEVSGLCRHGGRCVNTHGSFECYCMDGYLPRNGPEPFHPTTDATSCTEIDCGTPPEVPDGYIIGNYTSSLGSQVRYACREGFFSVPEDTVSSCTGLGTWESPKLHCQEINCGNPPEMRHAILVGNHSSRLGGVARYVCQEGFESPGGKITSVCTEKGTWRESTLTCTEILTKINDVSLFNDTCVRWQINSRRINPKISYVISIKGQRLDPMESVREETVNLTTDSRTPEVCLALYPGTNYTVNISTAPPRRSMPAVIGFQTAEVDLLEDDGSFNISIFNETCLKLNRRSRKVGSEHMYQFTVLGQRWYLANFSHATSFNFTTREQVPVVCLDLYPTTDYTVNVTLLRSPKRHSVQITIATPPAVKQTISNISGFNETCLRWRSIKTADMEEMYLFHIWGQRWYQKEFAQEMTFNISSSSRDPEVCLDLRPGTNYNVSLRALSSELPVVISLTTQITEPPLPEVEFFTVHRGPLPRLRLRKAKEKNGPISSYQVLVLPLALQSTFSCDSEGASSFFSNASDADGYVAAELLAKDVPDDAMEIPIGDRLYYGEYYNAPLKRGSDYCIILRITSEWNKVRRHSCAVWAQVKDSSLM
Sequence of APCDD1 (Q8J025 27-492 limits assumed): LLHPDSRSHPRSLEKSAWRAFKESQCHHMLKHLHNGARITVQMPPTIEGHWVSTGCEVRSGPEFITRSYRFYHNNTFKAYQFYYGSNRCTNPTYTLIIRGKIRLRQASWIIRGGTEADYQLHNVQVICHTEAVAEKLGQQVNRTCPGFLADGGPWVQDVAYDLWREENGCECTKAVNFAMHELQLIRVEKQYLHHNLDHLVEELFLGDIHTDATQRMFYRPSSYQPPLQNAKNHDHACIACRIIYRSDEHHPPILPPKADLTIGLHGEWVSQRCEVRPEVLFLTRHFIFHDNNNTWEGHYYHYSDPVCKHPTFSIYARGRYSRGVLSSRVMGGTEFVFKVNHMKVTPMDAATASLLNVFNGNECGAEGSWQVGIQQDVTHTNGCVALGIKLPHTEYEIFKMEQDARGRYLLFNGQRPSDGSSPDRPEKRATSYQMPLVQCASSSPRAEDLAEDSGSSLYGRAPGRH

B1: PD1-41C9 (antibody, V domains shown)
VH: QMQLVESGGGVVQPGRSLRLSCAASGFTFSSYAMHWVRQAPGKGLEWVAVISYDGSNKYYADSVKGRFTISRDNSKNTLYLQMNRLRSEDTAVYYCTTTTFDSWGQGTLITVSS
VL: DIVMTQTPLSLPVTPGEAASISCRSSQSLLDSEDGNTYLDWYLQKPGQSPQLLIYTLSHRASGVPDRFSGSGSGTDFTLKISRVAAEDVGLYYCLQRMGFPYTFGQGTKLDIK
notes: scFv-phage in the screening ELISA; whole IgG in the other assays
no binding (tested: 1 ug/ml): all assays above

B2: PD1-49A2 (antibody, V domains shown)
VH: QVQLVESGGGVVQPGRSLRLSCAASGFTFSSYAMHWVRQAPGKGLEWVAVISYDGSNKYYADSVKGRFTISRDNPKNTLYLQMNSLRAEDTAVYYCTTTTFDSWGRGTLVTVSS
VL: DIVMTQSPLSLPVTPGEPASISCRSSQSLFDSDDGNTYLDWYLQKPGQSPQLLIYTLSHRASGVPDRFSGSGSGTDFTLKISRVEAEDVGIYYCLQRMGFPYTFGQGTKVEIK
notes: scFv-phage in the screening ELISA; whole IgG in the other assays; also called Parent 49A2
no binding (tested: 1 ug/ml): all assays above

B3: PD1-45D6 (antibody, V domains shown)
VH: QVQLVESGGGVVQPGRSLRLSCAASGFTFSSYAMHWVRQVPGKGLEWVAVISYDGNDKYYADSVKGRFTISRDNSKNTLYLQMNSLRAEDTAVYYCVPTTFEYWGQGSQVTVSS
VL: DIVMTQTPLSLPVTPGEAASISCRSSQSLLDSDDGKTYLDWYLQKPGQSPQLLIYTLSYRASGVPDRFSGSGSGTEFNLRISRVEAEDVGIYYCMQRVEFPFTFGQGTKLDIK
notes: as for B1
no binding (tested: 1 ug/ml): all assays above
